Experimental findings from publication PMC4022466, “Spermatid Cyst Polarization in Drosophila Depends upon apkc and the CPEB Family Translational Regulator orb2” are described below.

The target in this series is T1, Orb2-RRM (GST-Orb2 C-terminus) (UniProt Q9VSR3 447-704).
T1 sequence: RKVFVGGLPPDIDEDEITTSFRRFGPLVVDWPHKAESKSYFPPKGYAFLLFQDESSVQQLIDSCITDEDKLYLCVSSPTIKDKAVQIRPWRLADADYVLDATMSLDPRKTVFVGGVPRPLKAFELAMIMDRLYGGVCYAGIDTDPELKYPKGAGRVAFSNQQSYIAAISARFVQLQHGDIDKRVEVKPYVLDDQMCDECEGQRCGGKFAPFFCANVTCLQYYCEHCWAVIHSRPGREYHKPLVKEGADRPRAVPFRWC
Briefly: competition; 100-400 fold excess cold against RA-GS probe; 25 mM Tris pH 7.5, 10 mM EDTA (rest of buffer and temperature not in the material). To be noted: protein: recombinant; tags: GST.

For ACUUUUGUUUUUAAUGCAUUCCAC (ssRNA) [Comp-CPE (competitor A)], the binding result is reported as “binds”.
